{"source": "paper doi:10.1101/2022.04.15.488344", "about": "(bioRxiv, 2022)", "proteins": {"B1": {"name": "ERα ligand binding domain (LBD) (305–555) with a Y537S mutation (domain or fragment, UniProt P03372 305-555, looked up)", "chain": "SLALSLTADQMVSALLDAEPPILYSEYDPTRPFSEASMMGLLTNLADRELVHMINWAKRVPGFVDLTLHDQVHLLECAWLEILMIGLVWRSMEHPGKLLFAPNLLLDRNQGKCVEGMVEIFDMLLATSSRFRMMNLQGEEFVCLKSIILLNSGVYTFLSSTLKSLEEKDHIHRVLDKITDTLIHLMAKAGLTLQQQHQRLAQLLLILSHIRHMSNKGMEHLYSMKCKNVVPLSDLLLEMLDAHRLHAPTSR"}}, "molecular_target": "the molecule itself", "test": "crystal structure"}
{"protein": "B1", "values": [{"measurement": "stoichiometry N", "value": 2}]}
